# Experiments:
# [1] = target: human CD3ε expressed on the cell surface of T cells (Jurkat clone E6-1; human CD8+ T cells) (human) (UniProt P07766); assay: cell-based or functional assay
# [2] = target: T1, human CD3ε expressed on the cell surface of T cells (Jurkat clone E6-1; human CD8+ T cells) (human, UniProt P07766 23-207); assay: cell-based or functional assay
# [3] = target: human CD3ε expressed on the cell surface of T cells (Jurkat clone E6-1; human CD8+ T cells) (human) (UniProt P07766); assay: cell-based or functional assay; remark: listed apart in the source
# [4] = target: human heterodimeric single-chain CD3εγ extracellular domain (human) (UniProt P07766); assay: SPR, human scCD3εγ ECD immobilised, scDb injected
# [5] = target: T1, human CD3ε expressed on the cell …; assay: cell-based or functional assay; remark: listed apart in the source
"Fold increase in CD69 expression [MFI normalized to neg. ctrl.], 1.25 µg/ml anti-CD3 IgG, Jurkat cells, 24 h [2] [fold]","Fold increase in CD69 expression [MFI normalized to neg. ctrl.], 5 µg/ml anti-CD3 IgG, Jurkat cells, 24 h [2] [fold]","Fold increase in CD69 expression [MFI normalized to neg. ctrl.], 20 µg/ml anti-CD3 IgG, Jurkat cells, 24 h [2] [fold]",Molecule,further results
–,–,–,"OKT3 (BioLegend, Cat. No. 317302) (antibody)","Fold increase in CD69 expression [MFI normalized to neg. ctrl.], 1.25 µg/ml anti-CD3 IgG, Jurkat cells, 24 h [1]: 1.8 fold; Fold increase in CD69 expression [MFI normalized to neg. ctrl.], 5 µg/ml anti-CD3 IgG, Jurkat cells, 24 h [1]: 2.5 fold; Fold increase in CD69 expression [MFI normalized to neg. ctrl.], 20 µg/ml anti-CD3 IgG, Jurkat cells, 24 h [1]: 3.1 fold"
–,–,–,"TR66 (Novus Biologicals, Cat. No. NBP1-97446) (antibody)","Fold increase in CD69 expression [MFI normalized to neg. ctrl.], 1.25 µg/ml anti-CD3 IgG, Jurkat cells, 24 h [1]: 1.6 fold; Fold increase in CD69 expression [MFI normalized to neg. ctrl.], 5 µg/ml anti-CD3 IgG, Jurkat cells, 24 h [1]: 2.2 fold; Fold increase in CD69 expression [MFI normalized to neg. ctrl.], 20 µg/ml anti-CD3 IgG, Jurkat cells, 24 h [1]: 3 fold"
2.6,4.2,6.2,"clone-10 (monoclonal rabbit anti-CD3ε antibody) (antibody, V domains shown) VH: QSLEESGGRLVTPGTPLTLTCTVSGFPLSSFAMLWVRQAPGKGLEWIGMIMRAHNMYYASWAKGRFTISKTSTTVDLEITSPTTEDTATYFCARRHYNTYGYPIAIGDLWGPGTLVTVSS VL: AQVLTQTPSSVSAAVGGTATISCQSNENIYSNNRLSWFQQKAGQPPNQLIYSASSLASGVPSRFKGSGSGTQFTLTISDLECDDAATYYCQGEFSCSSADCFTFGGGTEVVVKG",–
3.3,4.6,7.4,"clone-02 (monoclonal rabbit anti-CD3ε antibody) (antibody, V domains shown) VH: QSLEESGGRLVTPGTPLTLTCTVSGFPLSAYAMIWVRQAPGKGLEWIGMIIRSGTVYYANWAKGRFTISKTSTTVDLKITSPTTEDTATYFCARRHYNADGYPIGIGDLWGPGTLVTVSS VL: AQVLTQTPSSVSAVVGGTVTISCQSSESVYSNNRLSWFQQKPGQPPKLLIYSASTLASGVPSRFKGSGSGTQFTLTITDLECDDAATYFCQGEFSCSSVDCFSFGGGTEVVVKG",–
–,–,–,"Construct 1, bispecific anti-CD3×IL5R single-chain diabody comprising the humanized variable domain of clone-06 (bispecific antibody, part only; not given: anti-IL5R domains and linkers, part only) chain, part: DIQMTQSPSSLSASVGDRVTITCQSSESVYNNKRLSWYQQKPGKAPKLLIYTASSLASGVPSRFSGSGSGTDFTLTISSLQPEDFATYYCQGEFTCSNADCFTFGQGTKLTVLGEVQLVESGGGLVQPGGSLRLSCAASGFPLSSYAMIWVRQAPGKGLEWIGMILRAGNIYYASWVKGRFTISRDNSKNTVYLQMNSLRAEDTAVYYCARRHYNREGYPIGIGDLWGQGTLVTVSS","Potency to lyse target cells [EC50] (CHO-IL5R cells, CD8+ T cells, 88 h) [3]: 0.1 nM; Potency to stimulate IL-2 secretion by T cells [EC50] [3]: 0.96 nM; Kd [4]: 11.5 nM"
2.7,5.1,5.3,"clone-06 (monoclonal rabbit anti-CD3ε antibody) (antibody, V domains shown) VH: QSVEESGGRLVTPGTPLTLTCTVSGFPLSSYAMIWVRQAPGKGLEWIGMILRAGNIYYASWVKGRVTISKTSTTVDLKITSPTTEDTATYFCARRHYNREGYPIGIGDLWGPGTLVTVSS VL: AQVLTQTPSSVSAAVGGTVTISCQSSESVYNNKRLSWFQQKPGQPPKQLIYTASSLASGVPSRFKGSGSGTQFTLTISDLECDDAATYYCQGEFTCSNADCFTFGGGTEVVVKG",–
2.6,4.6,6.6,"clone-03 (monoclonal rabbit anti-CD3ε antibody) (antibody, V domains shown) VH: QSLEESGGRLVTPGTPLTLTCTVSGFPLNRYAMLWVRQAPGKGLEWIGLITRADKKYYASWAKGRFTISKTSTTVDLEITGPTTEDTATYFCARRHYNTDGYPIAIGDLWGPGTLVTVSS VL: AQVLTQTPSSVSAAVGGTVTISCQSNENIYSNNRLSWFQQKPGQPPNQLIYSASSLASGVPSRFKGSGSGTQFTLTISDLECDDAATYYCQGEFNCNSADCFTFGGGTEVVVKG",–
2.6,3.5,7.8,"clone-04 (monoclonal rabbit anti-CD3ε antibody) (antibody, V domains shown) VH: QSLEESGGRLVKPDETLTLTCTVSGFPLSSYAMGWFRQAPGKGLEWIGMILRSDNTYYASWAKGRFTISKTSTTVDLKITSPTTEDTATYFCARRHYNASGNPIAIGDLWGPGTLVTVSS VL: AQVLTQTPSSVSAAVGGTVTINCQSSQSVYNNNRLSWFQQKPGQPPKLLIYTTSSLASGVPSRFKGSGSGTEFTLTISDLECADAATYYCQGEFSCSRADCFNFGGGTEVVVKG",–
–,–,–,bispecific anti-IL5R×CD3ε single-chain diabody containing Numab's humanized clone 6 anti-CD3 variable domain (Example 9) (bispecific antibody) DIQMTQSPSSLSASVGDRVTITCQASQNIYSNLAWYQQKPGKAPKLLIYRASTLASGVPSRFSGSGSGTDFTLTISSLQPEDFATYYCQSNYGINYYGAAFGQGTKLTVLGGGGGSEVQLVESGGGLVQPGGSLRLSCAASGFPLSSYAMIWVRQAPGKGLEWIGMILRAGNIYYASWVKGRFTISRDNSKNTVYLQMNSLRAEDTAVYYCARRHYNREGYPIGIGDLWGQGTLVTVSSGGGGSGGGGSGGGGSGGGGSDIQMTQSPSSLSASVGDRVTITCQSSESVYNNKRLSWYQQKPGKAPKLLIYTASSLASGVPSRFSGSGSGTDFTLTISSLQPEDFATYYCQGEFTCSNADCFTFGQGTKLTVLGGGGGSEVQLVESGGGLVQPGGSLRLSCAASGFSLSSYDMTWVRQAPGKGLEWIGIIYVSGSAYYASWAKGRFTISRDNSKNTVYLQMNSLRAEDTAVYYCARINYGLDLWGQGTLVTVSS,EC50 of specific lysis of CHO-IL5R target cells by CD8+ T cells at 64 hours [5]: 0.31 nM
